Legend:
Experiment in all cases: ELISA
[1] = molecular target: wild-type full-length desmin (recombinant) (UniProt P17661 1-470)
[2] = molecular target: desmin E245D (recombinant, desminopathy-linked mutant) (UniProt P17661 1-470, E245D)
[3] = molecular target: desmin T453I (recombinant, desminopathy-linked mutant) (UniProt P17661 1-470, T453I)
desmin T453I (recombinant, desminopathy-linked mutant), sequence (P17661 whole entry T453I): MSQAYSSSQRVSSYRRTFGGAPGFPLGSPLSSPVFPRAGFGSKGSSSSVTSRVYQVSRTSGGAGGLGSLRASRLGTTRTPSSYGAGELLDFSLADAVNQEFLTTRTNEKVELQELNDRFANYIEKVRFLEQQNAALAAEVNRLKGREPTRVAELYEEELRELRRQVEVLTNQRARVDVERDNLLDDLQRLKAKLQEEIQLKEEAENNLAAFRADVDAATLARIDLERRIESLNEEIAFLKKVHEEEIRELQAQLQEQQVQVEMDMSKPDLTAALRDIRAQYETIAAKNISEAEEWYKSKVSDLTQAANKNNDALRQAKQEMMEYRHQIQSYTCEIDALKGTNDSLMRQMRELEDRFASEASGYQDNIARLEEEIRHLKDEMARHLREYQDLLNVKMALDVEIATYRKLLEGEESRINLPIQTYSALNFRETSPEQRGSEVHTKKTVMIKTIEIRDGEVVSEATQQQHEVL

wild-type full-length desmin (recombinant), sequence (P17661 whole entry): as the sequence (P17661 whole entry T453I) above, with I453T counted along it
desmin E245D (recombinant, desminopathy-linked mutant), sequence (P17661 whole entry E245D): as the sequence (P17661 whole entry T453I) above, with E245D, I453T counted along it

- Kd [1]: 16 to 24 nM
- Kd [2]: 5 to 6 nM
- Kd [3]: 3 nM
B1: His-nebulette modules 1–5 (recombinant) (domain or fragment, UniProt O76041 32-213, looked up)
chain: PVIEDLSMELARKCTELISDIRYKEEFKKSKDKCTFVTDSPMLNHVKNIGAFISEAKYKGTIKADLSNSLYKRMPATIDSVFAGEVTQLQSEVAYKQKHDAAKGFSDYAHMKEPPEVKHAMEVNKHQSNISYRKDVQDTHTYSAELDRPDIKMATQISKIISNAEYKKGQGIMNKEPAVIGR

Source: paper PMC5170609 (Molecular Biology of the Cell, 2016)
